Results taken from IntAct's records for PubMed 18716626.

B1: Shugoshin-1 (Schizosaccharomyces pombe (strain ATCC 38366 / 972)), Q9P7A0 (parent)
chain: MNFQFINSNINNEDKLPMESLKKKFLKQNREIIKINTQLSIKIRESENEIQDLIQENFTLKSYLVKLEARFRNQSQTEDLLKNFFPEIQTIHKKISQVQSLLKIIEKKCSSDFLEANVKSQFTTCENKDSKEDYQILHNKRLEYVSFNDELKSLETGQPLYCFQDFQKKVHGPPALSEKPGKCILKDKTNAHVNKIPQDEVNYSLPQKNITIFSKELKENEFESINEGETEEEKAKTSNVCVCIPCKSAEQITDLKGQATGDSSPCDFEESQPRINGREKLRRSVKVINYAIPSLRTKLRRDFDLPSDRKRKRHPRGKA
partner: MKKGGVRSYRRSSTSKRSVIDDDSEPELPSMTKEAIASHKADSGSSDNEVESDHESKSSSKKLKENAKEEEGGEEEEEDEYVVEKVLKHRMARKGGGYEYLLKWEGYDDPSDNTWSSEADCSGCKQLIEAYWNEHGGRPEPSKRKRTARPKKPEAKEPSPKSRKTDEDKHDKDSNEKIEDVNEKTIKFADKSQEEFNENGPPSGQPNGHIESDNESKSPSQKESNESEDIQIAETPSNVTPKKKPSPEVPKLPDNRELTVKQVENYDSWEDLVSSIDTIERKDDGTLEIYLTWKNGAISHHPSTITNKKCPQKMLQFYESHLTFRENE
B2: Chromatin-associated protein swi6 (Schizosaccharomyces pombe (strain ATCC 38366 / 972)), P40381 (parent)
chain: B1 partner
partner: B1 chain

Variants of: B1
Details: with swi6_schpo swi6, P40381

effect of a mutation on the interaction	Variant
disrupting interaction strength	V242E

Variants of: B2
Details: with sgo1_schpo sgo1, Q9P7A0

effect of a mutation on the interaction	Variant
disrupting interaction strength	F324A
